In publication PMC10634658:

Assays:
[1] = target: BLUF-α3 (PAC-BLUF domain with the α3-helix of OaPAC, residues 1-126) (Oscillatoria acuminata); assay: SEC; Superdex 200 Increase 10/300, PBS, room temperature, 50 μM, 100 μl injected; dark state and light state (column irradiated with a Xe lamp); mass calibrated with a gel filtration standard
[2] = target: BLUF-α3 (PAC-BLUF domain with the α3-helix of OaPAC, residues 1-126) (Oscillatoria acuminata); assay: transient grating (diffusion coefficient); 80 μM protein, 23 °C, excitation at 462 nm; diffusion coefficients of reactant (dark) and photoproduct (light) compared with those expected for monomer and dimer
[3] = target: PAC-BLUF (BLUF domain of OaPAC, residues 1-102) (Oscillatoria acuminata); assay: SEC; Superdex 200 Increase 10/300, PBS, room temperature, 50 μM, 100 μl injected; dark state and light state (column irradiated with a Xe lamp); mass calibrated with a gel filtration standard
[4] = target: PAC-BLUF (BLUF domain of OaPAC, residues 1-102) (Oscillatoria acuminata); assay: transient grating (diffusion coefficient); 80 μM protein, 23 °C, excitation at 462 nm; diffusion coefficients of reactant (dark) and photoproduct (light) compared with those expected for monomer and dimer
[5] = target: full-length OaPAC (photoactivated adenylate cyclase from Oscillatoria acuminata) (Oscillatoria acuminata); assay: SEC; Superdex 200 Increase 10/300, PBS, room temperature, 50 μM, 100 μl injected; dark state and light state (column irradiated with a Xe lamp); mass calibrated with a gel filtration standard
[6] = target: full-length OaPAC (photoactivated adenylate cyclase from Oscillatoria acuminata) (Oscillatoria acuminata); assay: transient grating (diffusion coefficient); 80 μM protein, 23 °C, excitation at 462 nm; diffusion coefficients of reactant (dark) and photoproduct (light) compared with those expected for monomer and dimer
[7] = target: full-length OaPAC (photoactivated adenylate cyclase from Oscillatoria acuminata) (Oscillatoria acuminata); assay: SAXS; Photon Factory BL-15A2, flowing sample, dark state and light state (450 nm diode laser); molecular mass from the Guinier plot (80 kDa)

## BLUF-α3 (PAC-BLUF domain with the α3-helix of OaPAC, residues 1-126) (domain or fragment)
[1]
  stoichiometry N: 2
[2]
  stoichiometry N: 2

## PAC-BLUF (BLUF domain of OaPAC, residues 1-102) (domain or fragment)
[3]
  stoichiometry N: 2
[4]
  stoichiometry N: 2

## full-length OaPAC (photoactivated adenylate cyclase from Oscillatoria acuminata) (enzyme)
[5]
  stoichiometry N: 2
[6]
  stoichiometry N: 2
[7]
  stoichiometry N: 2
